For assay [1], the target named is Biotin-ncov RBD (KACTUS, COV-VM4BDB) (SARS-CoV-2, UniProt P0DTC2 319-537). The assay is described as follows: ELISA blocking assay: antibody titrated from 900 nM, blocks biotin-RBD (200 ng/mL) binding to coated ACE2-Fc. On the technique in general: In an ELISA, binding on a coated surface is turned into a signal by an enzyme label.
For assay [2], the target named is SARS-CoV-2 euvirus S protein (SARS-CoV-2, UniProt P0DTC2 14-1273). The assay is described as follows: cell-based or functional assay.

B1: P14-37 (antibody, V domains shown)
VH: EVQLVESGGGLVKPGGSLRLSCAASGFTFSNAWMSWVRQAPGKGLEWVGRIKRNSDGGTTDHAAPVTGRFIISRDDSKNTLYLQMNSLRTEDTAVYYCTTDLDTVVRRVVITDHDAFDIWGQGTMVTVSS
VL: DIQMTQSPSSLSASVGDRVTITCRASQSISSFLNWYQQKAGKAPKLLIYAASSLQSGVPSRFSGSGSGTDFSLTISNLQPEDFATYYCQQSYSTPSITFGQGTRLEIK
notes: also called candidate antibody molecule P14-37
In assay [1], B1 gave a half-inhibitory concentration (IC50) of 1.14 nM.

B2: P23-29 (antibody, V domains shown)
VH: QVQLQESGPGLVKPSETLSLTCTVSGDSISSSTYYWGWIRQPPGKGLEWIGSMYYGRSTYYNPSLKSRVTVSVDTSKNQLSLKVSSVTAADTAVYYCARHLGGVDYWGQGTLVTVSS
VL: DIQMTQSPSSLSASVGDRVTITCRASQGISNSLAWYQQEPGKAPKLLLYAASTLESGVPSRFSGSGSGADSTLTISSLQPEDFATYYCQQYYSASALTFGGGTKVEIK
notes: also called candidate antibody molecule P23-29
In assay [1], B2 displayed an IC50 of 1.2 nM. The “EC50, neutralization of SARS-CoV-2 euvirus infection of VERO-E6 cells (CPE, day 4)” value (“EC50, neutralization” below) in assay [2] is 0.0488 µg/mL.

B3: P3-11 (antibody, V domains shown)
VH: QVQLVESGGGLVQPGGSLRLSCAASGITVSSNYMSWVRQAPGKGLEWVSVIYSGGSTFYADPVKGRLTISRDNSKNTLYLQMNSVRVEDTAVYYCARGEGWELPFDYWGQGALVTVSS
VL: QSALTQPPSASGSPGQSVTISCTGTSSDVGGNKYVSWYQQHPGKAPKLIIYEVSKRPSGVPDRFSGSKSGNTASLTVSGLQAEDEADYHCSSYAGSNNLVFGGGTKLTVL
notes: also called candidate antibody molecule P3-11
As to B3, the IC50 in assay [1] was found to be 1.1 nM. The “EC50, neutralization” value in assay [2] amounted to 0.195 µg/mL.

B4: P5-22 (antibody, V domains shown)
VH: EVQLVESGGGLVKPGGSLRLSCAASGFTFRDYDIIWIRQAPGKGLEWVSYISRSGSTIYYSDSVRGRFTISRDNAKNSVYLQMNSLRAEDTAVYYCARDFGFEGPRMDVWGQGTTVTVSS
VL: DIQMTQSPSSLSASVGDRVTITCQASQDIKNYLNWYQQKPGKAPKLLIYDASNLETGVPSRFSGSGSGTDFTFTISSLQPEDIATYYCQQFDNLPITFGQGTRLEIK
notes: also called candidate antibody molecule P5-22
In assay [1], B4 gave an IC50 of 1.08 nM. Further, in assay [2], the “EC50, neutralization” value was determined as 0.00657 µg/mL.

B5: P15-16 (antibody, V domains shown)
VH: QVQLVESGGGLVQPGRSLTLSCAASGFTFDDYAMHWVRQAPGKGLEWVSGISWNSGTIDYADSVKGRFTISRDNAKNSLYLQMNSLRAEDTALYYCATLPRERAYSGYDRIFYTIDVWGQGTTVTVSS
VL: not shown
notes: also called candidate antibody molecule P15-16
Molecule B5 yielded an IC50 in assay [1] of 1.39 nM.

B6: P10-20 (antibody, V domains shown)
VH: QVQLVESGGGLVKPGGSLRLSCAASGFTFSDYYMSWIRQAPGKGLEWVSYISISSTYTNYADSVKGRFTISRDNAKNSLYLQMNSLRAEDTAVYYCVIAAAGKGHYYYGMDVWGQGTTVTVSS
VL: not shown
notes: also called candidate antibody molecule P10-20
With B6, in assay [1], the IC50 was 0.957 nM. In addition, the “EC50, neutralization” value in assay [2] was roughly 0.0752 µg/mL.

B7: P14-44 (antibody, V domains shown)
VH: QVQLVQSGAEVKKPGASVKVSCKASGYIFTSYSMHWVRQAPGQGLEWMGTIKPSDDSTNYAQKFQGRVSMTRDTSTSTVYMELSSLRYEDTAVYYCAREARGYYDRSGYYHPGYFDYWGQGTLVTVSS
VL: QSVLTQPASVSGSPGQSITISCTGTSSDVGGYNFVSWYQQHPGKAPKLMIYEVSDRPSGVSSRFSGSKSGNTASLTISGLQAEDEADYYCFSYTTSTTWVFGGGTKLTVL
notes: also called candidate antibody molecule P14-44
For the molecule B7, the IC50 in assay [1] amounted to 0.863 nM. For the same molecule, the “EC50, neutralization” value in assay [2] was found to be 0.708 µg/mL.

One may read the IC50 as the point on the concentration scale where inhibition reaches its midpoint. Read a low IC50 as greater potency.

These data come from patent US20230391854A1 (Innovent, published 2023).
